± gives the uncertainty stated by the source.

A short description of this data set: amyloid nucleation score (Sup35N fusion, yeast selection) (log enrichment); library NNK3; higher = more nucleation; inactive = no reads after selection. An outline of the steps: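 The nucleation score is a DiMSum log enrichment of output over input reads, centred on the mode score of non-aggregating sequences. Sequences under 100 input reads were excluded, and reads came from Illumina sequencing of plasmid inserts. Psi-negative yeast expressing Sup35N fused to peptides of 20 random codons were induced with 100 μM copper sulfate for 24 hours and grown 7 days at 30°C on medium lacking adenine and uracil. Random libraries had three technical output replicates.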
Turning to MRLCAGSCAVFMWNVLVMLG, the amyloid nucleation score result was “inactive”.
Then FDIFQGDINLHFLDVNITR, with 0.397 ± 0.75; and TENCEFFTNPPARPYG, with “inactive”.
Regarding MILLGKNSLDPEGKGVCHVW, the amyloid nucleation score entry is “inactive”.
On to RKEMLKMRRFRSRGCWVILS, for which the amyloid nucleation score entry was “inactive”.
Then FTNNI, with “inactive”; and FLCQFLRFFCIN, with 1.04 ± 0.13; and HYLYRNCNVAVTVRSLTV, with “inactive”.
Then TLPMYTRCTTFAHLSSS, with “inactive”; and RKNVELANPLFTSPWLNIMY, with “inactive”; and ADFDDHDYLVMCDWWINMHS, with “inactive”.
On to QVGPWLDNSNSFCDDIKGMC, for which the amyloid nucleation score entry is “inactive”.
For LYDLTGPVSNLTISLLNVEY the value was “inactive”; for NKGMPGPHGANSRYTGVDVG, “inactive”; for LLECNRTMPQLMVWEVFCSV, “inactive”.
For YYTWVCECSYWHSVFM the value was “inactive”; for SYWLQSPYDTESMSGFLLQI, “inactive”; for AIDLKLAKSEWGWSALGWFL, “inactive”.
For RLRFLRT the value was “inactive”; for WRRLEGSHA, “inactive”; for AAVSGDVTM, “inactive”.
As for KLRFKLRSLVNNNCGVVTRA, the amyloid nucleation score result was “inactive”.
Then YLSASYIVYFIITEYYSYIF, with “inactive”; and HSDKCDCSAVDDLLRRVVL, with “inactive”; and ITGMVPWSSLESSRPGSLKR, with “inactive”.
For SYYFMGHLVFSVQTCIYTQG the value was 0.004 ± 0.26.
With GIIMPKSRLVPTWTQSRSCC, the amyloid nucleation score entry is “inactive”.
For CTSESVSYNMDRTKCQMYLT the value was “inactive”.
Turning to FECKLNRGWSKQARWLNKLY, the amyloid nucleation score was determined as 0.177 ± 0.38.
For VFSGIL the value was “inactive”.
For YVSQQYCWPGFFHRVHTGKS the value was “inactive”.
For FELSNVHGSLNRAKV the value was -0.526 ± 0.8; for KMGPILKCPR, “inactive”.
VCRRTGSKITFGQWKVYFSS: the amyloid nucleation score entry is “inactive”.
Then KKFGSYEWSRI, with “inactive”; and DEMRKGRWHGDRLGRSDRQE, with “inactive”; and CKLYHIIGLYLGVVVL, with “inactive”.
Then SEIIHLGFYYDP, with “inactive”.
Then ASDTVTCFAYAVKGLRRASG, with “inactive”; and LDGMYHTVRICNSCF, with “inactive”.
On to WTWTSLSSLMWSV, for which the amyloid nucleation score entry is “inactive”.
Consider VLKFFLTAMVD, for which the amyloid nucleation score entry was “inactive”.
Then TFFFVVGHSNDEVYSCVKTV, with 1.12 ± 0.11; and MLAGWSQFYGISRYLPENPV, with “inactive”; and CWDFKGFMMESLTNRSPYAS, with “inactive”.
Then STLNGGSWVMIYAEDLTS, with “inactive”; and SIMYFVTNGCGNGC, with 1.79 ± 0.086.
For QTNIWYSGPIGSYHC the value was “inactive”; for GIVRSVCYVNGCVLDHEVGI, “inactive”; for FSVSASEKHFFSCVMLYCVS, 0.935 ± 0.1.
With TDMMMFICE, the amyloid nucleation score entry was “inactive”.
Turning to FLFILPDNGPRWCSYTVGNV, the amyloid nucleation score result is “inactive”.
Then NYFQFLKENFVARNKESRRG, with “inactive”; and FELRVV, with “inactive”.
For FLIISCS, the amyloid nucleation score result is “inactive”.
For GYKATQLLSGGPYNLCVGGT the value was “inactive”; for DIQYWYTPVTKMTYSTNWFF, 1.26 ± 0.1.
For TVTGIMSKYANTSFRN the value was “inactive”; for LYMYLGRVCMWHLRCHKRYN, “inactive”.
As for ANSNRRECQHNS, the amyloid nucleation score was found to be 1.06 ± 0.16.
Then NWPGMLFNLSLVERRSWRRN, with “inactive”; and NRRNLSLFECLSSTGVSRVN, with “inactive”.
For GWTLQWIVWI the value was 0.081 ± 0.81; for LIYYCEHHARLSVLLDESSA, “inactive”; for ITDYMIQF, -0.66 ± 0.7.
Turning to CLPQHKISNH, the amyloid nucleation score entry was “inactive”.
The substance IVDHNIMI displayed an amyloid nucleation score of 0.718 ± 0.3.
For SHIFCSFFKSSYLNSGWQHG the value was “inactive”; for EVRLLGYLVTRNDM, “inactive”.
Then NAALIVCLITFYVLGIFLAG, with “inactive”; and EFFSCYTEYPFRPAFLILTT, with “inactive”.
For YGMYNMTGNMAFKTPARYIF the value was “inactive”; for CHASRSGIKLLLSIAAWTCI, “inactive”.
In the case of IGDMSLLLTCGGWSLIQLQA, the amyloid nucleation score entry was “inactive”.
The substance TGSNRSYIFFCWSRFNVMFG displayed an amyloid nucleation score of -0.002 ± 0.9.
With TLPLTHYVYVVMLKSSSTGC, the amyloid nucleation score result was “inactive”.
For LYGGTAFLLSFCVAE, the amyloid nucleation score result was “inactive”.
KGLSIIWMGQFGGAEFRITG: the amyloid nucleation score result was “inactive”.
As to YASWKLRTN, the amyloid nucleation score entry was “inactive”.
For LWVRKDERGEYI the value was “inactive”; for FLGVNNNSVVNLYELCD, “inactive”.
For GIASFECGDSCKSVN the value was “inactive”; for ISCGYSYGTRRFS, “inactive”.
Then CVDFR, with “inactive”; and MGHSDNGEDTSTWLCDRRVV, with “inactive”.
Turning to VVGSSIK, the amyloid nucleation score entry was “inactive”.
Then MRSTNLACAGMHIN, with “inactive”; and RANVQDMTKISYVFTYTWYV, with “inactive”.
Then VTAFATNKVC, with “inactive”; and ASLTGNFYTGWRFLALATMC, with “inactive”.
Substance WIRIIQLNVSERGNRVGSYC returned an amyloid nucleation score of 0.37 ± 0.5.
VSTWVQTPGTHMLGVIVYFE: the amyloid nucleation score entry was “inactive”.
NCFMSLASSNTR: the amyloid nucleation score result was “inactive”.
Then SYVWYRNGM, with “inactive”; and YWQDGQ, with “inactive”.
For VRLSRAVILLAVIHLRWGLT the value was “inactive”; for CDIPFF, “inactive”.
For SSFLKQLLGSVVNSVNVATV the value was “inactive”; for ILLGIEAPCVSITYYFKTFL, 1.32 ± 0.13.
On to VRRVQSLRPPAHVSLAPYRA, for which the amyloid nucleation score entry is “inactive”.
For YLVSY the value was “inactive”; for FVWNMFSASLIKI, “inactive”.
On to SKIFSCYVVLKSMLTDPGVA, for which the amyloid nucleation score entry is “inactive”.
Then YIGRAGQFDRRFFGSLCCAM, with “inactive”.
Then CRTQYKCRIAIWGYKFQPER, with “inactive”; and KQKMYTAVPKGIQNILEA, with “inactive”.
Then STMHELYV, with “inactive”; and YYLSTTGMWNFVSSNGALYG, with -0.793 ± 1.3; and IESIH, with “inactive”.
For the substance MLHLGTCEIILAYHHDMKML, the amyloid nucleation score result was “inactive”.
Then TDKFWLIGDSTTSWIEVVFN, with “inactive”; and LFPYMDCNSGTELFYGFIVQ, with “inactive”; and VLQLDL, with “inactive”.
Then ERGGSTFCSTYFTVLKHRSG, with “inactive”.
Then PFTACWVSVADNPYPSNKTG, with “inactive”; and TRCSG, with “inactive”.
In turn, NIISR gave an amyloid nucleation score of -0.184 ± 0.81.
Take FLRCTRPPTASENIFRDINY: the amyloid nucleation score result is “inactive”.
Then SDKFMLRHHLCWDARSCFQV, with 0.348 ± 0.75; and VYGVTSHCTVRRELWAGSIM, with “inactive”.
For the substance IHNGKDTLAVVWYGFLIMFW, the amyloid nucleation score result is “inactive”.
For YIITFGSMTCLVVTGNPAIV the value was -0.039 ± 0.66.
As to VVQRMG, the amyloid nucleation score was -0.048 ± 1.1.
Then SPRAFTASVEGVSEL, with “inactive”; and KSGPYAVRLSEISWCDVRAG, with 0.153 ± 0.88; and LGSGEATE, with “inactive”.
For LLDNITLFVWNYMVSSEWKL the value was “inactive”; for NSNSI, “inactive”.
QDWEMVN: the amyloid nucleation score result is “inactive”.
DRGSMSHILASVSTFNVYIS returned an amyloid nucleation score of 1.2 ± 0.1.
For FGTMSSGYAGGNKKFHPHRY, the amyloid nucleation score entry is “inactive”.
For TVTVPG the value was “inactive”.
For HNLNLDGLMSKSSFTPMVLL the value was “inactive”.

The record behind these values is the supplement of paper PMC12042874.
